Here are results for three molecules from patent US7179889B2, “Propionicin T1 polypeptide, a bacteriocin from Propionibacterium thoenii” (Provisage As, priority 2001, dated 2007).

The test system of one data set is Listeria monocytogenes. Particulars: food-borne pathogen; cited from earlier work.
The subject of data set [1] is Lactobacillus sake NCDO 2714. Description: overlay assay, zones of growth inhibition around producer colonies. Particulars: bacteriocin. In kind it is cell-based. The protocol:
(§1) Screening for antimicrobial activity. Colonies of strains of propionibacteria were grown on agar plates for 72 to 120 hr. A lawn of 5 ml GM17 soft agar containing 500 μl of a fresh culture of the indicator organisms was then poured over the plates. After incubation for 24 to 48 hr at 30° C., the colonies were examined for zones of growth inhibition.

Data set [2] concerns Propionibacterium freudenreichii. Description: overlay assay, ten strains of Propionibacterium freudenreichii. Particulars: bacteriocin. The format is cell-based. As to the method:
as §1

A short description of data set [3]: stability of propionicin T1 (heat, acid, storage). The format is physicochemical. The protocol:
(§2) Bacteriocin assay. Antimicrobial activity was determined by a microtiter plate assay (8). Each well of the microtiter plate contained 50 μl of twofold serial dilutions in SLB or GM17 of the bacteriocin samples, and 150 μl of a 100-fold-diluted fresh overnight culture of the indicator strain. The plates were incubated at 30° C. for 24 to 48 hr, and growth inhibition of the indicator organisms was measured spectrophotometrically at 620 nm with a microtiter plate reader. One bacteriocin unit (BU) was defined as the amount of bacteriocin that inhibited the growth of the indicator organism by 50% as compared with a control culture without bacteriocin.
Stability of propionicin T1. The stability of the peptide was tested, by exposing the bacteriocin (0.3 M NaCl eluate from the cation exchange column) to temperatures of 60° C. and 100° C. for 15 min and to pH 2.5 for one hour. […] Thus, propionicin T1 is heat stable and acid stable.

In data set [4] the test system is P. acidipropionici ATCC 4965. Description: effect of the bacteriocin on the viability of sensitive cells. The format is cell-based, Propionibacterium acidipropionici. The protocol:
Effect of the bacteriocin on the viability of sensitive cells. Partially purified bacteriocin from P. thoenii 419 eluted in 0.3 M NaCl from an ion-exchange column was added in variable amounts to a 48 hr culture of P. acidipropionici grown in GM17, diluted 100-fold. Optical density at 620 nm and viable count (by dilution and plate counting) were determined at time intervals.
The effect of propionicin T1 on viability of sensitive cells. Several experiments were performed to show the effect of propionicin T1 on the viability of the indicator cells. Cultures of P. acidipropionici ATCC 4965 were exposed to different amounts of partially purified propionicin T1. […] More than 99% of the cells were killed after 40 hr (FIG. 2A). The same result was also obtained using 100 or 4000 BU/ml. […] This increase was followed by a decrease in optical density (FIG. 2B).

Data set [5] concerns all strains of Propionibacterium acidipropionici tested. Description: inhibition spectrum of propionicin T1. In kind it is cell-based. As to the method: as §1, §2
The subject of data set [6] is all strains of Propionibacterium jensenii tested. Description: inhibition spectrum of propionicin T1. In kind it is cell-based. The protocol:
as §1, §2

Data set [7] concerns all strains of Propionibacterium thoenii tested. Description: inhibition spectrum of propionicin T1. The format is cell-based. The protocol: as §1, §2

Entries after “also recorded” stand apart in the source; their conditions may differ.

Take nisin: the “activity against Listeria monocytogenes” value in the data set on Listeria monocytogenes was “not very sensitive”.

Take “pediocin PA1 (KYYGNGVTCGKHSCSVDWGKATTCIINNGAMAWATGGHQGNHKC; Bacteriocin pediocin PA-1; UniProt P29430 19-62, looked up) [antibacterial protein produced by Pediococcus acidilactici PAC1.0]”: the “activity against Listeria monocytogenes” value with Listeria monocytogenes is “very active”.

B1: Propionicin T1: new bacteriocin isolated from Propionibacterium thoenii 419 and LMG 2792; prebacteriocin SEQ ID NO:11, N-terminal sequence SEQ ID NO:9 (protein, listed as Propionibacterium thoenii)
chain: MKKTLLRSGTIALATAAAFGASLAAAPSAMAVPGGCTYTRSNRDVIGTCKTGSGQFRIRLDCNNAPDKTSVWAKPKVMVSVHCLVGQPRSISFETK
Take B1: the “activity against Lactobacillus sake NCDO 2714” value in data set [1] is “active”. In addition, the “activity against Propionibacterium freudenreichii” value in data set [2] is “no activity; also recorded: no strains of P. freudenreichii were inhibited”. Further, the “antimicrobial activity after heat exposure” value was “No reduction in antimicrobial activity” in data set [3] (60° C. for 15 min, 0.3 M NaCl eluate from cation exchange column) and “No reduction in antimicrobial activity” in data set [3] (100° C. for 15 min, 0.3 M NaCl eluate from cation exchange column). The “antimicrobial activity after acid exposure” value in data set [3] (pH 2.5 for one hour, 0.3 M NaCl eluate from cation exchange column) is “No reduction in antimicrobial activity”. Further, the “bacteriocin activity after storage at room temperature” value in data set [3] (room temperature for 24 hr) is recorded as “no effect on the bacteriocin activity”. The “bacteriocin activity after freezing, thawing and storage” value in data set [3] (storage at 4° C. or −20° C. up to six months) is recorded as “no effect on the bacteriocin activity”. In addition, in data set [4] (100 or 1000 BU/ml culture, FIG. 2B), the “optical density (620 nm) of bacteriocin treated cultures” value is reported as “increase in the optical density for several hours after addition of bacteriocin”. In data set [4] (100 or 4000 BU/ml), the “cells killed, other bacteriocin amounts” value was “same result”. Moreover, in data set [4] (after 4 hr, plate counting), the viable count result is on record as “reduction in viable count”. In addition, in data set [4] (after 40 hr, 1000 BU/ml culture, plate counting, partially purified), the cells killed entry is reported as “More than 99%”. In data set [4] (plate counting), the “mode of action on indicator cells” value is on record as “bactericidal effect; also recorded: slow bactericidal mode of action”. In addition, in data set [5], the “activity against Propionibacterium acidipropionici” value was “active”. Further, the “activity against Propionibacterium jensenii” value in data set [6] was “active”. Also, the “activity against Propionibacterium thoenii” value in data set [7] was “active”.
